Results: the supplement of paper PMC10567573

B1: FAM9B (parent)
chain: EDLTAKRKRMKMDKTCSKTKNKSK

Variants of: B1
Assay: protein stability index of a GFP-peptide fusion (GPS, HEK-293T) (PSI 1-6); higher = more stable
Details: c terminus: a fixed tail appended
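Also: lentivirally expressed fusions sorted by FACS into six bins by GFP to DsRed ratio, PSI derived from sequencing read proportions per bin multiplied by bin number.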

Protein stability index of substitutions, site by site:
K8: G 4.75 | H 4.97 | I 4.4 | L 4.38 | N 5.53 | P 5.5 | Q 3.39 | R 5.15 | S 5.39 | T 4.97 | V 5.13 | W 4.77 | Y 4.33
R9: A 5.33 | C 5.05 | D 5.64 | E 5.12 | F 5.14 | G 4.9 | H 4.49 | I 4.08 | K 5.33 | L 4.04 | M 5.07 | N 5.38 | P 4.4 | Q 5.58 | S 5.47 | T 5.11 | V 5.09 | W 4.48 | Y 5.29
M10: A 4.25 | C 5.02 | D 5.29 | E 5.43 | F 4.88 | G 4.71 | H 5.43 | I 5.18 | K 5.31 | L 5.34 | N 4.23 | P 4.75 | Q 5.28 | R 5.64 | S 5.43 | T 5.35 | V 5.12 | W 4.96 | Y 4.94
K11: A 5.04 | C 4.9 | D 5.22 | E 5.29 | F 5.02 | G 5.19 | H 5.38 | I 4.47 | L 4.62 | M 4.21 | N 4.45 | P 5.16 | Q 5.02 | R 4.97 | S 4.79 | T 4.49 | V 5.08 | W 4.83 | Y 4.26
M12: A 5.02 | C 5.06 | D 5.18 | E 5.78 | F 4.95 | G 5.76 | H 5.44 | I 5.03 | K 4.79 | L 4.79 | N 4.67 | P 5.61 | Q 5.03
